These results are taken from patent US6750325 (CELLTECH R AND D, dated 2004).

In this assay the target is T1, CD3 antigen of the T-cell receptor-CD3 complex on human T cells (human, UniProt P07766 23-207).
T1 construct: whole, on cells; also called OKT3 antigen
The assay can be described thus: antigen binding assay on CD3 positive cells, COS cell supernatant (cell line not restated).

Protocol: The procedure was as follows:
HUT 78 cells (human T cell line, CD3 positive) were maintained in culture. Monolayers of HUT 78 cells were prepared onto 96 well ELISA plates using poly-L-lysine and glutaraldehyde. Samples were added to the monolayers for 1 hour at room temperature. The plates were washed gently using PBS. F(ab')_2 goat anti-human IgG Fc (HRPO conjugated) or F(ab')_2 goat anti-mouse IgG Fc (HRPO conjugated) was added as appropriate for humanised or mouse samples. Substrate was added to reveal the reaction. The negative control for the cell-based assay was chimer B72.3. […] Binding was measured by the following procedure: HPB-ALL cells were harvested from tissue culture. Cells were incubated at 4° C. for 1 hour with various dilutions of test antibody, positive control antibody, or negative control antibody. The cells were washed once and incubated at 4° C. for 1 hour with an FITC-labelled goat anti-human IgG (Fc– specific, mouse absorbed). The cells were washed twice and analysed by cytofluorography. […] Cells incubated with mock-transfected COS cell supernatant, followed by the FITC-labelled goat anti-human IgG, provided the negative control. […] The samples were incubated for 1 hour at 4° C., washed twice and analysed by cytofluorography.

B1: fully CDR-grafted antibody kgL221A with gH341 (kgL221A/kgH341) (antibody, V domains shown)
VH: QVQLVESGGGVVQPGRSLRLSCSSSGYTFTRYTMHWVRQAPGKGLEWVAYINPSRGYTNYNQKFKDRFTISRDNSKNTLFLQMDSLRPEDTGVYFCARYYDDHYCLDYWGQGTTLTVSS
VL: QIVMTQSPSSLSASVGDRVTITCSASSSVSYMNWYQQTPGKAPKRWIYDTSKLASGVPSRFSGSGSGTDYTFTISSLQPEDIATYYCQQWSSNPFTFGQGTKLQIT
notes: Expression was very low; also called kgH221A/gH341; kgH221A/kgH341
In the case of B1, the binding result is “no binding”.
